Test results: patent US12618044B2, “Specification of functional cranial placode derivatives from human pluripotent stem cells” (MEMORIAL SLOAN-KETTERING CANCER CENTER, priority 2013, dated 2026)

B1: DKK-1: recombinant DKK-1, Wnt signaling inhibitor (protein, UniProt O94907 32-266, looked up)
Dickkopf-related protein 1: TLNSVLNSNAIKNLPPPLGGAAGHPGSAVSAAPGILYPGGNKYQTIDNYQPYPCAEDEECGTDEYCASPTRGGDAGVQICLACRKRRKRCMRHAMCCPGNYCKNGICVSSDQNHFRGEIEETITESFGNDHSTLDGYSRRTTLSSKMYHTKGQEGSVCLRSSDCASGLCCARHFWSKICKPVLKEGQVCTKHRRKGSHGLEIFQRCYCGEGLSCRIQKDHHQASNSSRLHTCQRH

System: hESC
Test: Floor plate induction from hESC (FOXA2 expression)
Assay type: cell-based, human
Experimental: For MS5 induction, established methods previously reported were used (Perrier et al., 2004). Feeder free neural induction was carried out as previously described (Chambers et al., 2009). Briefly, hESCs cultures were disaggregated using accutase for 20 minutes, washed using hESCs media and pre-plated on gelatin for 1 hour at 37° C. in the presence of ROCK inhibitor to remove MEFs. The nonadherent hESCs were washed and plated on matrigel at a density of 20,000 cells/cm2 on matrigel (BD) coated dishes in MEF conditioned hESCs media (CM) spiked with 10 ng/mL of FGF-2 and ROCK-inhibitor. The ROCK inhibitor was withdrawn, and hESCs were allowed to expand in CM for 3 days or until they were nearly confluent. The initial differentiation media conditions included knock out serum replacement (KSR) media with […] TGF-b inhibitor (SB431542, Tocris) and 500 ng/mL of Noggin (R&D). Upon day 5 of differentiation, increasing amounts of N2 media (25%, 50%, 75%) was added to the KSR media every two days while maintaining 500 ng/mL of Noggin and TGF-b inhibitor. For FP induction, Sonic C25II was added at 200 ng/ml. In some experiments, DKK-1 (R&D 100 ng/ml) FGF8 (R&D 50 ng/ml), Wnt-1 (Peprotech 50 ng/ml) and Retinoic Acid (R&D 1 uM) were added.
Tissue was fixed using 4% paraformaldehyde and Picric acid for 15 minutes, washed with PBS, permeabalized using 0.3% Triton X in PBS, and blocked using 10% Donkey Serum. Primary antibodies used for microscopy included PAX6 (Covance), TUJ1 (Covance), ZO1 (Zymed), BF1 (FOXG1, gift E.Lai), TH (Pelfreez), NKX6.1 (DSHB) and FOXA2 (SantaCruz).
Based on the hypothesis that FP specification in the mouse occurs at early developmental stages, at the time of or prior to neural induction, the inventors repeated SHH induction studies at Day 9, the time of rosette specification, using classic stromal-feeder mediated neural induction protocols (Elkabetz et al., 2008). Under this paradigm the inventors noticed a drastic change in cell morphology restricted to the cells treated with SHH-C25II (FIG. 15B). […] In addition to decreased expression of BF1 the inventors also observed decreased expression of PAX6, another maker expressed in the AN (FIG. 1E). […] The inventors performed dose response studies to understand how FP marker induction compared to that of NKX6.1 expression; a gene known to respond to lower concentrations of SHH. […] At higher concentrations FP markers rapidly rise, while NKX6.1 expression tapers off (FIG. 15G).
Using this protocol, in combination with compositions and methods of the present inventions, the inventors aimed to optimize FP differentiation by adding Sonic C25II at different time points during neural induction and assaying for FOXA2 expression. Differentiation was initiated upon NSB exposure, and Sonic C25II was added at Day 1, Day 3, Day 5, or Day 7 (FIG. 16A). […] Furthermore, the differentiation conditions establish a robust platform for inducing human FOXA2+ cells in vitro.

[1] = in combination with Sonic C25II

Row | Molecule | FOXA2 expression (added early, BIO 100 nM) | FP competency / FOXA2 induction (added to neural rosette stage cells) | FOXA2+ cells (added along with SHH at Day1, 9 days of SHH exposure) | BF1 transcript [1] | FOXA2 message and protein [1]
1 | O=C1Nc2cc(Br)ccc2/C1=C1/Nc2ccccc2/C1=N\O [BIO, reference compound] | increase | not sufficient | – | – | –
2 | B1 | – | – | increase | more rapid rise | decrease
